Target: Cyclosporine 29-56-14 combinatorial mutant clone R2-9 (scFv on yeast)
Assay: competition, flow cytometry on yeast; M17 0 to 5 uM against 0.5 nM bt-CsA; physiological or selection diluent

## cyclosporine A metabolite M17 (peptide)
  fold increase of IC50 compared to WT CsA 29-56-14: 30 to 100 fold

Source: US20080176756A1
